Experimental data: patent US20240269276A1 (HARBOUR BIOMED SHANGHAI, published 2024)
Changes are numbered by the printed parent chain. Names and notes keep the numbering of the source. Like-named read-outs stand apart in the source and are kept apart here.

T1: human CD73 on CHO-K1 cells overexpressing human CD73 (human, UniProt P21589 27-549)
T1 construct: whole, on cells; also called CHO-K1-hCD73
T1 sequence (looked up): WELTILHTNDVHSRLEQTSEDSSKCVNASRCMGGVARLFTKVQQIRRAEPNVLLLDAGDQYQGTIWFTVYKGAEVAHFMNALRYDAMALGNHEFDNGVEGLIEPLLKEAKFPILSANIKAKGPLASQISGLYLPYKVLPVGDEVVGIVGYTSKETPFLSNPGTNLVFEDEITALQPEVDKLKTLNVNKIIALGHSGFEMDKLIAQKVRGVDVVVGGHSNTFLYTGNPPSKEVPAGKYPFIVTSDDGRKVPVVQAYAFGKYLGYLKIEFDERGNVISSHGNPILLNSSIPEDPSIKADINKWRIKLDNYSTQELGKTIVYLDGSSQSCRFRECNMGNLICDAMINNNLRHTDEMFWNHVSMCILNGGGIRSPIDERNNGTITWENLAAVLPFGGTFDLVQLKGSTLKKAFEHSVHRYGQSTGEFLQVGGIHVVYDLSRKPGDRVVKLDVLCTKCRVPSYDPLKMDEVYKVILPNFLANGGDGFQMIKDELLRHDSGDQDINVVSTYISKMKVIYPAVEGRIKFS

B1: PR002082 (antibody, human IgG1, V domains shown)
VH: QVQLVESGGGVVQPGMSLRLSCAASGFTFSSYGMYWVRQAPGKGQEWVAIIWYDGTKKHYADSVKGRFTISRDNSKNTLYLEMNSLRVEDTAVYYCAKNRAIFGVVPDASDIRGQGTMVTVSS
notes: HCAb; also called PTM variant of PR000960 (N28T, N31S)
B2: PR006245 (antibody, human IgG1, V domains shown)
VH: B1 VH with T28D, I50S, W52R, D54T, K57E
notes: The HC entry is used
B3: PR005869 (antibody, human IgG1, V domains shown)
VH: B1 VH with I102L, V106I, A109D
notes: The HC entry is used
B4: PR005868 (antibody, human IgG1, V domains shown)
VH: B1 VH with I102L, V106I
notes: The HC entry is used
B5: PR006247 (antibody, human IgG1, V domains shown)
VH: B1 VH with T28D, I50S, W52R, D54T, K57E, I102L, V106I
notes: The HC entry is used
B6: PR005867 (antibody, human IgG1, V domains shown)
VH: B1 VH with V106I, A109D
notes: The HC entry is used
B7: PR004295 (bispecific antibody, human IgG1, kappa, L234A L235A)
heavy: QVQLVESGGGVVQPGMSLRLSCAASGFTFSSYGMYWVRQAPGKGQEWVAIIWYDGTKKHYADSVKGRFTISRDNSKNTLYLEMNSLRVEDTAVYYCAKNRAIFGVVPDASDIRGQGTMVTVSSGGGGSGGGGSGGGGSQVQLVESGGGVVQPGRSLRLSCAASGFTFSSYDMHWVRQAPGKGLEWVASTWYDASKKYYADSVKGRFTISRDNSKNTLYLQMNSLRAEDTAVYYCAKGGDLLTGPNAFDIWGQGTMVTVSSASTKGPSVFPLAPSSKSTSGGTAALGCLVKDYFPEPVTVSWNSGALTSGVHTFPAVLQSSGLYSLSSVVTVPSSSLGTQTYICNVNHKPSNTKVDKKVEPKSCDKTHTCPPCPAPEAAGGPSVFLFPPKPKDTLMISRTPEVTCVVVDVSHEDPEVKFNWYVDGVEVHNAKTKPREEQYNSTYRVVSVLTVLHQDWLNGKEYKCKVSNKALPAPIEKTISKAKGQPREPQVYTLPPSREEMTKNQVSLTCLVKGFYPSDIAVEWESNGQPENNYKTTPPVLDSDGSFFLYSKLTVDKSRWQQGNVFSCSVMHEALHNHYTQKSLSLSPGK
light: DIQMTQSPSTLSASVGDRVTITCRASQSISSWLAWYQQKPGKAPKLLIYKASSLESGVPSRFSGSGSGTEFTLTISSLQPDDFATYYCQQYDNYENTFGQGTKLEIKRTVAAPSVFIFPPSDEQLKSGTASVVCLLNNFYPREAKVQWKVDNALQSGNSQESVTEQDSKDSTYSLSSTLTLSKADYEKHKVYACEVTHQGLSSPVTKSFNRGEC
notes: light chain of PR003836; also called CD73×PD-L1 bispecific antibody PR004295
B8: PR003739 (bispecific antibody, human IgG1, kappa, L234A L235A)
heavy: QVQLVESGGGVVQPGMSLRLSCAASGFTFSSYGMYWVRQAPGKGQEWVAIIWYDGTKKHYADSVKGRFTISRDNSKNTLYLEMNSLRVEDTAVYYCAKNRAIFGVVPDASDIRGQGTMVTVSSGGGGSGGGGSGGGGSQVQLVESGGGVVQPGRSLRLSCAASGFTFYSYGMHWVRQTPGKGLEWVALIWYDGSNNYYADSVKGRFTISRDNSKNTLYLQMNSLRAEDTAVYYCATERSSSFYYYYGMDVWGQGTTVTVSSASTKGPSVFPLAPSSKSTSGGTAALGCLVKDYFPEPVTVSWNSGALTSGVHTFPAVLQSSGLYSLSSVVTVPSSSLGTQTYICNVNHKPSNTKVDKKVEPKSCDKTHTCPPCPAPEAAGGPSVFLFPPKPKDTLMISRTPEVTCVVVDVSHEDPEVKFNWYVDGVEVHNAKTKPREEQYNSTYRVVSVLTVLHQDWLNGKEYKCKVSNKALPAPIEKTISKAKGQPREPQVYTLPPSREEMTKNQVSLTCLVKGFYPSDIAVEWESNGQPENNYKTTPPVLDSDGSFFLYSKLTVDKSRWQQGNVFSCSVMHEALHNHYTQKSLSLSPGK
light: DIQLTQSPSFLSTSVGDRVTITCRASQGISSYLAWYQQKPGKAPKLLIYAASTLQSGVPSRFSGSGSGTEFTLTISSLQPEDFATYYCQQLNSYPYTFGQGTELEIKRTVAAPSVFIFPPSDEQLKSGTASVVCLLNNFYPREAKVQWKVDNALQSGNSQESVTEQDSKDSTYSLSSTLTLSKADYEKHKVYACEVTHQGLSSPVTKSFNRGEC
notes: light chain of PR001408; also called CD73×PD-L1 bispecific antibody PR003739

How the values were obtained:
[1] = target: T2, human PD-L1 on CHO-K1 cells overexpressing human PD-L1 (human, UniProt Q9NZQ7 19-290); test: flow cytometry on CHO-K1 cells overexpressing human PD-L1 (CHO-K1/hPD-L1) [continued) D]
T2 construct: whole, on cells; also called CHO-K1/hPD-L1; CHO-K1-hPD-L1
Procedure: (§1) In the example, in order to study the in vitro binding activity of the PD-L1 antigen-binding protein to human/cynomolgus monkey PD-L1, cell-level binding experiments were performed using CHO-K1 cell strains overexpressing human PD-L1 (CHO-K1/hPD-L1, GenScript, M00543) or CHO-K1 cell strains overexpressing cynomolgus monkey PD-L1 (CHO-K1/cynoPD-L1, GenScript, M00573). Briefly, the PD-L1 cells were digested and resuspended in an F-12K complete medium, and the cell density was adjusted to 1×10⁶ cells/mL. The cells were seeded in a 96-well V-bottom plate (Corning, 3894) at 100 μL/well, followed by the addition of the test antigen-binding proteins serially diluted 5-fold with concentrations that were twice the final concentrations at 100 μL/well. The mixtures were well mixed. The highest final concentration of the antigen-binding proteins was 100 nM. A total of 8 concentrations were set. An isotype antibody hIgG1 iso was used as a control. The cells were incubated away from light at 4° C. for 1 h. Thereafter, the cells in each well were rinsed twice with 100 μL of pre-cooled PBS, and centrifuged at 500 g at 4° C. for 5 min, and then the supernatant was discarded. Then 100 μL of a fluorescent secondary antibody (goat anti-human IgG (H+L) secondary antibody, Alexa Fluor 488 conjugate, Invitrogen, A11013, diluted at the ratio of 1:1000) was added to each well. The plate was incubated away from light at 4° C. for 30 min. The cells in each well were then rinsed twice with 200 μL of pre-cooled PBS and centrifuged at 500 g at 4° C. for 5 min, and then the supernatant was discarded. Finally, a pre-cooled PBS was added at 200 μL/well to resuspend the cells. Fluorescence signal values were read using a BD FACS CANTOII. Fluorescence signal values were read using a flow cytometer BD FACS CANTOII or FACS ACEA, and the data were processed and analyzed using FlowJo v10 (FlowJo, LLC) software. The data were processed and analyzed by plotting using GraphPad Prism 8 software, and binding curves, EC50 values and other parameters were acquired through four-parameter nonlinear fitting.

[2] = target: T2, human PD-L1 on CHO-K1 cells …; test: flow cytometry on CHO-K1 cells overexpressing human PD-L1 (CHO-K1-hPD-L1) [continued) F]
Procedure: (§2) In order to investigate the binding activity of the CD73×PD-L1 bispecific antibody to human CD73 and PD-L1, the binding experiment at the cellular level was performed using CHO-K1 cell strains overexpressing human CD73 or PD-L1 (CHO-K1-hCD73 or CHO-K1-hPD-L1). Briefly, the CHO-K1-hCD73 and CHO-K1-hPD-L1 cells were digested and resuspended in an F-12K complete medium, and the cell density was adjusted to 1×10⁶ cells/mL. The cells were seeded in a 96-well V-bottom plate (Corning, #3894) at 100 μL/well, followed by the addition at 100 μL/well and centrifugation at 500 g at 4° C. for 5 min, and then the supernatant was discarded. Antibodies were 3-fold diluted to a maximum final concentration of 50 nM, and a total of 8 concentrations were set. 100 μL of the diluted antibodies was added to the cells, and the cells were incubated away from light at 4° C for 1 h. Thereafter, the cells in each well were rinsed twice with 100 μL of pre-cooled PBS, and centrifuged at 500 g at 4° C. for 5 min, and then the supernatant was discarded. Then 100 μL of a fluorescent secondary antibody (goat anti-human IgG (H+L) secondary antibody, Alexa Fluor® 488 conjugate, Invitrogen, #A11013, diluted at the ratio of 1:1000) was added to each well. […] Finally, the cells in each well were resuspended in 200 μL of pre-cooled PBS, and the fluorescence signal values were read using a BD FACS CANTOII.

[3] = target: T2, human PD-L1 on CHO-K1 cells …; test: flow cytometry on CHO-K1 cells overexpressing human PD-L1 (CHO-K1/hPD-L1) [continued) E]
Procedure: as §1

[4] = target: T3, cynomolgus monkey PD-L1 on CHO-K1 cells overexpressing cynomolgus monkey PD-L1 (cynomolgus monkey, UniProt G7PSE7 19-290); test: flow cytometry on CHO-K1 cells overexpressing cynomolgus monkey PD-L1 (CHO-K1/cynoPD-L1)
T3 construct: also called CHO-K1/cynoPD-L1; GenScript M00573
Procedure: as §1

[5] = target: T2, human PD-L1 on CHO-K1 cells …; test: flow cytometry on CHO-K1 cells overexpressing human PD-L1 (CHO-K1/hPD-L1) [continued) F]
Procedure: as §1

[6] = target: T4, human PD-L1 protein with histidine tag (ACROBiosystems #PD-1-H5258) (human, UniProt Q9NZQ7 19-238); test: BLI (Octet Red96e); His-tagged human PD-L1 captured on HIS1K sensor, antibody at 60 nM; 1:1 fit
T4 construct: Bought protein; also called His PD-L1; human PD-L1 proteins; not shown: histidine tag
Procedure: In this example, affinity determination was performed on the affinity-matured mutants of PR002082 using an Octet Red96e instrument. […] The binding kinetics between the antigen and the antibody was analyzed by the biolayer interferometry (BLI) technique using an Octet molecular interaction analyzer (ForteBio, model: Octet Red96e).
When the affinity of the antigen for the antibody was determined, the rotation speed of the sensor was set at 1000 rpm/min. The 2 HIS1K sensors placed in a column were first equilibrated for 10 min in test buffer, then His PD-L1 was captured with the HIS1K sensor at a capture height of 0.9-1.1 nm, then the HIS1K sensor was equilibrated for 2 min in the test buffer, then the HIS1K sensor was bound to the antigen-binding protein (60 nM and 0 nM) for 3 min, and finally the mixture was dissociated for 15 min. The HIS1K sensor was immersed in a 10 mM glycine solution (pH 1.5) for regeneration to elute the proteins bound to the sensor.
When data analysis was performed using Octet Data Analysis software (Fortebio, version 11.0), the reference signals were subtracted by a single reference mode (reference well), the data were fitted by a “1:1 Local/full fitting” method, and the kinetic parameters of the binding of the antigen to the antibody were calculated to obtain Kₒₙ (1/Ms) values, Kdis (1/s) values and KD (M) values.

[7] = target: T3, cynomolgus monkey PD-L1 on CHO-K1 cells …; test: flow cytometry on CHO-K1 cells overexpressing cynomolgus monkey PD-L1 (CHO-K1/cynoPD-L1); remark: listed apart in the source
Procedure: as §1

[8] = target: T2, human PD-L1 on CHO-K1 cells …; test: flow cytometry on CHO-K1 cells overexpressing human PD-L1 (CHO-K1/hPD-L1)
Procedure: as §1

[9] = target: T2, human PD-L1 on CHO-K1 cells …; test: flow cytometry on CHO-K1 cells overexpressing human PD-L1 (CHO-K1-hPD-L1) [continued) E]
Procedure: as §2

[10] = target: T3, cynomolgus monkey PD-L1 on CHO-K1 cells …; test: flow cytometry on CHO-K1/cynoPD-L1 cells
Procedure: as §1

[11] = target: T1, human CD73 on CHO-K1 cells …; test: flow cytometry on CHO-K1 cells overexpressing human CD73 (CHO-K1-hCD73)
Procedure: In order to investigate the binding activity of the CD73×PD-L1 bispecific antibody to human CD73 and PD-L1, the binding experiment at the cellular level was performed using CHO-K1 cell strains overexpressing human CD73 or PD-L1 (CHO-K1-hCD73 or CHO-K1-hPD-L1). Briefly, the CHO-K1-hCD73 and CHO-K1-hPD-L1 cells were digested and resuspended in an F-12K complete medium, and the cell density was adjusted to 1×10⁶ cells/mL. The cells were seeded in a 96-well V-bottom plate (Corning, #3894) at 100 μL/well, followed by the addition at 100 μL/well and centrifugation at 500 g at 4° C. for 5 min, and then the supernatant was discarded. Antibodies were 3-fold diluted to a maximum final concentration of 50 nM, and a total of 8 concentrations were set. 100 μL of the diluted antibodies was added to the cells, and the cells were incubated away from light at 4° C for 1 h. Thereafter, the cells in each well were rinsed twice with 100 μL of pre-cooled PBS, and centrifuged at 500 g at 4° C. for 5 min, and then the supernatant was discarded. Then 100 μL of a fluorescent secondary antibody (goat anti-human IgG (H+L) secondary antibody, Alexa Fluor® 488 conjugate, Invitrogen, #A11013, diluted at the ratio of 1:1000) was added to each well. The plate was incubated away from light at 4° C. for 30 min. The cells in each well were then rinsed twice with 200 μL of pre-cooled PBS and centrifuged at 500 g at 4° C. for 5 min, and then the supernatant was discarded. Finally, the cells in each well were resuspended in 200 μL of pre-cooled PBS, and the fluorescence signal values were read using a BD FACS CANTOII.

T2 sequence (Q9NZQ7 19-290): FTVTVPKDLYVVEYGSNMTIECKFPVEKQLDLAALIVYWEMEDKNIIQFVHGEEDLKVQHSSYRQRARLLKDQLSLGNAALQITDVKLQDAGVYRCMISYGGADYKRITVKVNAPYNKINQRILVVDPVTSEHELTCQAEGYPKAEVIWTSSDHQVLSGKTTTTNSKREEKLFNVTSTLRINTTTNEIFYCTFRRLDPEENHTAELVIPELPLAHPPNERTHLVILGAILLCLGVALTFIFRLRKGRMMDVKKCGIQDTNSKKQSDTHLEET
T4 sequence (Q9NZQ7 19-238 limits assumed): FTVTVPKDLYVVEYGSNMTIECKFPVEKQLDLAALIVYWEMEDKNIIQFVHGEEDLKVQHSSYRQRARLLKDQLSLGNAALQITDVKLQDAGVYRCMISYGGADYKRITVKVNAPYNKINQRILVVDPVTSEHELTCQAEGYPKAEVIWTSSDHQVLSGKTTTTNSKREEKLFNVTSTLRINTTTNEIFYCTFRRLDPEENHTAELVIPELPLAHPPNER
T3 sequence (G7PSE7 entry or part of it limits assumed): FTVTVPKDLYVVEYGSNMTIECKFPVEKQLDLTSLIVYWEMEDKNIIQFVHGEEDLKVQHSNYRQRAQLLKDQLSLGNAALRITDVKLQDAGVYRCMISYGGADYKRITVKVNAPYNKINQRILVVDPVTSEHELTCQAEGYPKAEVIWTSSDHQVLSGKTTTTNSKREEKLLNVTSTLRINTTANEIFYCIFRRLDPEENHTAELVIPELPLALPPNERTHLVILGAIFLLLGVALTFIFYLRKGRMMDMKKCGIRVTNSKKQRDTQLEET

Binder	EC50 [3]	Maximum MFI [3]	EC50 [5]	Maximum MFI [5]	Kd [6]	koff [6]	kon [6]	binding result [10]	other results
B1	1.24 nM	381000 MFI	1.31 nM	430000 MFI	5.61 nM	0.00118 s⁻¹	210000 M⁻¹ s⁻¹	–	EC50 [1]: 1.23 nM; Maximum MFI [1]: 387000 MFI; EC50 [2]: 2.93 nM; EC50 [4]: 1.52 nM; Maximum MFI [4]: 12100 MFI; EC50 [7]: 0.386 nM; EC50 [8]: 0.86 nM; Maximum MFI [8]: 24500 MFI; EC50 [9]: 1.17 nM
B2	–	–	0.964 nM	405000 MFI	1.09 nM	0.000162 s⁻¹	149000 M⁻¹ s⁻¹	binds	–
B3	1.13 nM	393000 MFI	–	–	1.09 nM	0.000262 s⁻¹	241000 M⁻¹ s⁻¹	binds	–
B4	1.06 nM	393000 MFI	–	–	1.92 nM	0.000386 s⁻¹	201000 M⁻¹ s⁻¹	binds	–
B5	–	–	1.01 nM	410000 MFI	1.18 nM	0.000219 s⁻¹	185000 M⁻¹ s⁻¹	binds	–
B6	1.14 nM	388000 MFI	–	–	1.85 nM	0.000468 s⁻¹	253000 M⁻¹ s⁻¹	binds	–
B7	–	–	–	–	–	–	–	–	EC50 [11]: 2.09 nM; EC50 [2]: 2.17 nM
B8	–	–	–	–	–	–	–	–	EC50 [11]: 0.99 nM; EC50 [9]: 1.66 nM
